Target: MBP-OsMYC2 (rice, UniProt Q336P5 1-699)
Test: SPR

Chain of MBP-OsMYC2 (Q336P5 whole entry): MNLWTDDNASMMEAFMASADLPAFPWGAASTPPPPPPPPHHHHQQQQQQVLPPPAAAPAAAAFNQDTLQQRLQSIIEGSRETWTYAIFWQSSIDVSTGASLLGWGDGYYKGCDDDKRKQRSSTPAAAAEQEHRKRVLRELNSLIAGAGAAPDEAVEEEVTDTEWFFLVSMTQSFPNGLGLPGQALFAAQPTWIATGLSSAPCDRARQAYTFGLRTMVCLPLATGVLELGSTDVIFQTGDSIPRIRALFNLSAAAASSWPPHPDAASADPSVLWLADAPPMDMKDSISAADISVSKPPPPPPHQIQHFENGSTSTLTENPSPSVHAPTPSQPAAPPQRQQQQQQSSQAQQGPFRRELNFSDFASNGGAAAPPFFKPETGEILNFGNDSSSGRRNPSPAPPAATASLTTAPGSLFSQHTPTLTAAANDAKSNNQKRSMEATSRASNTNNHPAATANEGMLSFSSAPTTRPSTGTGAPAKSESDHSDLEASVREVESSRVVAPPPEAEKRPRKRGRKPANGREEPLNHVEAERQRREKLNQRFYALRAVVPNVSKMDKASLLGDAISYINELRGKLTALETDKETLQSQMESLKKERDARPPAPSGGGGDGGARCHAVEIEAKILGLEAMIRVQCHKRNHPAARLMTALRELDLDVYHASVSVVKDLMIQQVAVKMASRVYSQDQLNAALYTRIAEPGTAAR

B1: GST-OsGSK2 (enzyme)
chain: MDQPAPAPEPMLLDAQPPAAVACDKKQQEGEAPYAEGNDAVTGHIISTTIGGKNGEPKRTISYMAERVVGTGSFGIVFQAKCLETGETVAIKKVLQDRRYKNRELQLMRAMDHPNVISLKHCFFSTTSRDELFLNLVMEYVPETLYRVLKHYSNANHRMPLIYVKLYMYQLFRGLAYIHTVPGVCHRDVKPQNVLVDPLTHQVKLCDFGSAKTLVPGEPNISYICSRYYRAPELIFGATEYTTSIDIWSAGCVLAELLLGQPLFPGESAVDQLVEIIKVLGTPTREEIRCMNPNYTEFRFPQIKAHPWHKVFHKRMPPEAIDLASRLLQYSPSLRCTALDACAHPFFDELREPNARLPNGRPFPPLFNFKHELANSSQELISRLIPEHVRRQATHNFFNTGS
Kd: 40.4 nM
